Test: Pharmacokinetic test, subcutaneous administration to SD rats (serum ELISA, Human GDF15 Immunoassay)
Type: in vivo
Details: 2 mg/kg subcutaneous, serum
Description: For evaluation of pharmacokinetic characteristics when each fusion polypeptide was subcutaneously administered to rats, the fusion polypeptides HT-ID1-GDF15, HT-ID2-GDF15 and HT-ID3-GDF15 were subcutaneously administered into SD rats (Koatech, male, 7-week-old, about 250 g; n=3 each; test group) in an amount of 2 mg/kg, respectively, and about 200 μl of blood was collected through the caudal vein at a predetermined time. The blood collection time was performed before administration, and 1, 2, 4, 8, 24, 48, 72, 96, 168, 240 and 336 hours after administration. As the control group for comparison of pharmacokinetic characteristics, GDF15 (R&D Systems) was subcutaneously administered in an amount of 2 mg/kg by the same method to prepare a GDF15 administration group.
After administering into SD Rats as above, blood collected by time-point was centrifuged to obtain serum, and ELISA was performed using Human GDF15 Immunoassay (SGD150, R&D Systems), and the concentration in the serum was measured depending on the time of each polypeptide.

With “HT-ID3-GDF15: Fusion polypeptide: His-Tag, TEV cleavage site, three IgD hinges, GS linker, GDF15 (SEQ ID NO: 3)” the “AUCextp (%) [(AUCinf − AUClast)/AUCinf]*100” value was 0.287%, the AUClast was 76200 ng·h/mL and the “Cmax (maximum concentration in blood)” value was 1110 ng/mL. The “Tmax (reaching time to maximum concentration in blood)” value was 24 h, the “t1/2 (loss half-life)” value was 26.2 h and the AUCinf (extrapolated to infinity) was 76400 ng·h/mL.
